# Data: paper PMC7116857
# Biological target: wild-type alpha-synuclein (UniProt P37840)
# Test: microfluidic free-flow electrophoresis
substance,measurement,value
wild-type alpha-synuclein (from UniProt P37840 1-140) (natural protein),"oligomer concentration (aptamer-bound, 1:1 assumed)",< 80 nM
